Results published in patent US20230416363A1 (KADMON, published 2023).

Key:
[1] = biological target: T1, human PD-1 expressed on cells (human, UniProt Q15116 25-288); test: cell-based or functional assay
[2] = biological target: T1, human PD-1 expressed on cells; test: flow cytometry, SEB-activated PBMC donor two
[3] = biological target: T1, human PD-1 expressed on cells; test: flow cytometry, hPD-1-293 cells
[4] = biological target: T1, human PD-1 expressed on cells; test: flow cytometry, SEB-activated PBMC donor
hPD-1-his [5] = biological target: T2, hPD-1-his (human, UniProt Q15116 25-167); test: SPR, Exp. 4
T2 construct: domain: IgV domain; monomer in solution; biotin-labelled where captured by streptavidin; also called biotin-hPD-1-his

[6] = biological target: T1, human PD-1 expressed on cells; test: flow cytometry, activated PBMC donor FA
hPD-1-his [7] = biological target: T2, hPD-1-his; test: ELISA, hPD-1-his on anti-his
hPD-1-his [8] = biological target: T2, hPD-1-his; test: SPR, Exp. 2
hPD-1-Fc [9] = biological target: T3, hPD-1-Fc (human, UniProt Q15116 25-167); test: blocking ELISA, hPD-1-Fc to hPD-L1-Fc
T3 construct: domain: IgV domain; also called human PD-1-Fc; not shown: human IgG1 Fc

hPD-1-Fc [10] = biological target: T3, hPD-1-Fc; test: SPR Biacore T200, PD-1-Fc immobilised
hPD-1-his [11] = biological target: T2, hPD-1-his; test: SPR, Exp. 1
hPD-1-Fc [12] = biological target: T3, hPD-1-Fc; test: SPR, Exp. 1
hPD-1-Fc [13] = biological target: T3, hPD-1-Fc; test: ELISA, hPD1-Fc coated
[14] = biological target: T1, human PD-1 expressed on cells; test: flow cytometry, hPD1-Jurkat cells
hPD-1-Fc [15] = biological target: T3, hPD-1-Fc; test: blocking ELISA, PD-1 to PD-L2
[16] = biological target: T1, human PD-1 expressed on cells; test: cell-based or functional assay; remark: listed apart in the source
[17] = biological target: T1, human PD-1 expressed on cells; test: flow cytometry, hPD1-293 cells
hPD-1-his [18] = biological target: T2, hPD-1-his; test: ELISA, biotin-PD-1-his on streptavidin
[19] = biological target: T1, human PD-1 expressed on cells; test: flow cytometry, hPD-1-Jurkat cells
hPD-1-Fc [20] = biological target: T3, hPD-1-Fc; test: blocking ELISA, PD-1 to PD-L1
hPD-1-his [21] = biological target: T2, hPD-1-his; test: SPR, Exp. 3
hPD-1-Fc [22] = biological target: T3, hPD-1-Fc; test: SPR, Exp. 3
hPD-1-Fc [23] = biological target: T3, hPD-1-Fc; test: SPR, range over experiments
hPD-1-his [24] = biological target: T2, hPD-1-his; test: SPR Biacore T200, PD-1-his immobilised
hPD-1-his [25] = biological target: T2, hPD-1-his; test: ELISA, biotin-hPD-1-his on streptavidin
[26] = biological target: T1, human PD-1 expressed on cells; test: cell-based or functional assay; remark: listed apart in the source
hPD-1-his [27] = biological target: T2, hPD-1-his; test: ELISA, PD-1-his on anti-his
[28] = biological target: T1, human PD-1 expressed on cells; test: flow cytometry, activated PBMC donor two
hPD-1-Fc [29] = biological target: T3, hPD-1-Fc; test: ELISA, PD-1-Fc coated
[30] = biological target: T4, hPD1 (soluble, ELISA of Example 20) (human, UniProt Q15116 25-167, limits assumed); test: ELISA, hPD1
[31] = biological target: T4, hPD1 (soluble, ELISA of Example 20); test: blocking ELISA, hPD1 to hPDL1
[32] = biological target: T5, mPD1 (soluble, ELISA of Examples 20 and 24) (mouse, UniProt Q02242 25-167, limits assumed); test: blocking ELISA, mPD1 to mPDL1
T5 construct: also called Biotin-mPD1
T5 sequence (looked up): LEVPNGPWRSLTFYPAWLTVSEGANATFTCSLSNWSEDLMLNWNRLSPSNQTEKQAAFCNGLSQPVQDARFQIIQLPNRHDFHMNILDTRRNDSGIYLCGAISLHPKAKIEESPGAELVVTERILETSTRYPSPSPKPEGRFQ

mPD-1-his = biological target: T6, mPD-1-his (mouse, UniProt Q02242 25-167, limits assumed); test: SPR Biacore, mPD1-his
T6 construct: domain: IgV domain
T6 sequence: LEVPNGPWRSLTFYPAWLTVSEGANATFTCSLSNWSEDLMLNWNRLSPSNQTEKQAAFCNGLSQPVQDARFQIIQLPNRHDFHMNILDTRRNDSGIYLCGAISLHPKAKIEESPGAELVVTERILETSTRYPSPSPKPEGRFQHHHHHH

[33] = biological target: T7, mouse PD-1 expressed on cells (mouse, UniProt Q02242 25-288); test: flow cytometry, mPD1-293 cells
T7 construct: whole, on cells
T7 sequence (looked up): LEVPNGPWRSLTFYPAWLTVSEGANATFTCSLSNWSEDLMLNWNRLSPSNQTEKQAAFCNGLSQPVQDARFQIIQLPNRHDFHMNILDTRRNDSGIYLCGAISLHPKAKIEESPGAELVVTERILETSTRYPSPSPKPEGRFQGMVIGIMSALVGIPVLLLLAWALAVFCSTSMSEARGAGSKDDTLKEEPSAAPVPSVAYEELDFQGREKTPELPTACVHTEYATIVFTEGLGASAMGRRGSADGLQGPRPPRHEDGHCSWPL

[34] = biological target: T5, mPD1 (soluble, ELISA of Examples 20 and …); test: ELISA, biotin-mPD1 on streptavidin
mPD-1-Fc = biological target: T8, mPD-1-Fc (mouse; human, UniProt Q02242 25-167, limits assumed); test: SPR Biacore, mPD1-Fc
T8 construct: domain: IgV domain; not shown: human IgG1 Fc
T8 sequence (looked up): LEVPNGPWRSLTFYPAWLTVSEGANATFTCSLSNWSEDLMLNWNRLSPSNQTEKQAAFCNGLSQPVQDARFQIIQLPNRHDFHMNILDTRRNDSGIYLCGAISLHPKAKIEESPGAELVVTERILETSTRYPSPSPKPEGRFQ

[35] = biological target: T5, mPD1 (soluble, ELISA of Examples 20 and …); test: ELISA, mPD1
[36] = biological target: T1, human PD-1 expressed on cells; test: flow cytometry, hPD1-293 cells; remark: listed apart in the source
[37] = biological target: T7, mouse PD-1 expressed on cells; test: flow cytometry, mPD1-eff cells
hPD-1-Fc [38] = biological target: T3, hPD-1-Fc; test: SPR Biacore, hPD1-Fc

T1 sequence (Q15116 25-288): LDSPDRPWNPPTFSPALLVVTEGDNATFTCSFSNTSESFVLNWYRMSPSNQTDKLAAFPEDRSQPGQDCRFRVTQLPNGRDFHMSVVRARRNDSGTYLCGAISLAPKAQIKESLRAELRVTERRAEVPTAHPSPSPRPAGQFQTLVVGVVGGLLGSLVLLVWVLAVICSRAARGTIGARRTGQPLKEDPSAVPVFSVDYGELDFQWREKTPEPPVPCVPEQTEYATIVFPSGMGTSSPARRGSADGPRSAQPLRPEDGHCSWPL
T2 sequence (Q15116 other isoform, or with tags, fused parts or gaps limits assumed): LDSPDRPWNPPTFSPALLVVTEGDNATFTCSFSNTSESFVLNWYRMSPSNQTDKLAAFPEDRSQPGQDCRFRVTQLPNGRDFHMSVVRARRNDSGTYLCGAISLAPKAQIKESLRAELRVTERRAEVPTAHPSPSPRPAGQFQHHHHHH
T3 sequence (Q15116 25-167 limits assumed): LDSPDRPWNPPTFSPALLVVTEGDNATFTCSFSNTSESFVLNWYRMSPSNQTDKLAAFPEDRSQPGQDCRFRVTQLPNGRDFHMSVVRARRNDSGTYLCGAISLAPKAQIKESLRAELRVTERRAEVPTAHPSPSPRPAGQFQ
T4 sequence (Q15116 25-167 limits assumed): as above

B1: 31B1 (antibody, V domains shown)
VH: QVQLVQSGAEVKKPGSSVKVSCKASGGTFSSSVISWVRQAPGQGLEWMGGIIPIFGTANYAQKFQGRVTITADESTSTAYMELSSLRSEDTAVYYCAREGLGCSGGSCYSGYYYGMDVWGQGTTVTVSS
VL: DIVMTQSPLSLPVTPGEPASISCRSSQSLLHSNGYNYLDWYLQKPGQSPQLLIYEASSLHSGVPDRFSGSGSGTDFTLKISRVEAEDVGVYYCMQGTHWPYTFGQGTKVEIK
notes: also called 780_38; 33B1 and 31B2 (apparent misprints)
B1 was tested, and the “EC50, Promega blockade bioassay, Exp. 1” value [1] was 0.168 µg/mL, the “EC50, Promega blockade bioassay, Exp. 2” value [1] was 0.172 µg/mL and the “Fold induction at 12 µg/ml, Exp. 1” value [1] was 7.44 fold. For the same binder, the “Fold induction at 12 µg/ml, Exp. 2” value [1] was 8.4 fold, the “MFI, 5 nM” value [2] was 67.7 MFI and the “MFI, 5 nM” value [3] was 186 MFI. For the same binder, the “MFI, 5 nM” value [4] was 98.5 MFI, the Kd (hPD-1-his [5]) was < 0.019 nM and the EC50 [6] was 0.049 nM. The “MFI at 25 nM” value [6] was 18.4 MFI, the EC50 (hPD-1-his [7]) was 0.095 nM and the “OD450 at 10 nM” value (hPD-1-his [7]) was 0.59 OD450. The Kd (hPD-1-his [8]) was < 0.01 nM, the IC50 (hPD-1-Fc [9]) was 2.15 nM and the “Inhibition % at 5.6 nM” value (hPD-1-Fc [9]) was 90.2%. The “Inhibition % at 50 nM” value (hPD-1-Fc [9]) was 91.4%, the Kd (hPD-1-Fc [10]) was 0.688 nM and the Kd (hPD-1-his [11]) was < 0.036 nM. For the same binder, the Kd (hPD-1-Fc [12]) was < 0.014 nM, the EC50 (hPD-1-Fc [13]) was 0.167 nM and the “OD450 at 10 nM” value (hPD-1-Fc [13]) was 0.974 OD450. The EC50 [14] was 0.084 nM, the “MFI at 5 nM” value [14] was 91.6 MFI and the IC50 (hPD-1-Fc [15]) was 3.94 nM. For the same binder, the “Inhibition, % at 3.7 nM” value (hPD-1-Fc [15]) was 41.4%, the “Inhibition, % at 100 nM” value (hPD-1-Fc [15]) was 94.5% and the “EC50 averaged from two experiments, Promega blockade bioassay” value [16] was 0.168 µg/mL. For the same binder, the EC50 [17] was 0.077 nM, the “MFI at 5 nM” value [17] was 46.4 MFI and the EC50 (hPD-1-his [18]) was 0.104 nM. For the same binder, the “MFI, 5 nM” value [19] was 67 MFI, the IC50 (hPD-1-Fc [20]) was 2.65 nM and the “Inhibition, % at 5.56 nM” value (hPD-1-Fc [20]) was 89.7%. For the same binder, the Kd (hPD-1-his [21]) was 0.353 nM, the Kd (hPD-1-Fc [22]) was < 0.01 nM and the Kd (hPD-1-Fc [23]) was 0.01 to 0.02 nM. For the same binder, the Kd (hPD-1-his [24]) was 6.56 nM, the EC50 (hPD-1-his [25]) was 0.244 nM and the “OD450 at 10 nM” value (hPD-1-his [25]) was 0.953 OD450. The “EC50, Promega blockade bioassay” value [26] was 0.139 µg/mL, the Fold induction [26] was 6.48 fold and the EC50 (hPD-1-his [27]) was 0.139 nM. For the same binder, the EC50 [28] was 0.025 nM, the “MFI at 25 nM” value [28] was 17.8 MFI and the EC50 (hPD-1-Fc [29]) was 0.114 nM.

B2: m2A1 (antibody, V domains shown)
VH: QVQLVQSGAEVKKPGASVKVSCKASGHTFTSYYIHWVRQAPGQGLEWMGIINPSGGSTSYAQKFQGRVTMTRDTSTSTVYMELSSLRSEDTAVYYCARDRAYGGAGDYWGQGTLVTVSS
VL: DIQMTQSPSSLSASVGDRVTITCRASRGISSWLAWYQQKPGKAPKLLIYAASSLQSGVPSRFSGSGSGTDFTLTISSLQPEDFATYYCQQSYSPPWTFGQGTKVEIK
notes: R3A9 derivative; also called m2AM (apparent misprint)
Work on B2 yielded an EC50 [30] of 0.146 nM, an IC50 [31] of 6.01 nM and an IC50 [32] of 0.442 nM. For the same binder, the Kd (mPD-1-his) was 2.83 nM, the koff (mPD-1-his) was 0.00107 s⁻¹ and the kon (mPD-1-his) was 375000 M⁻¹ s⁻¹. The EC50 [33] was 0.433 nM, the EC50 [34] was 0.14 nM and the Kd (mPD-1-Fc) was 2.73 nM. It also gave a koff (mPD-1-Fc) of 0.000905 s⁻¹, a kon (mPD-1-Fc) of 333000 M⁻¹ s⁻¹ and an EC50 [35] of 0.304 nM. The EC50 [36] was 0.987 nM, the EC50 [37] was 0.253 nM and the Kd (hPD-1-Fc [38]) was 1.67 nM. It also gave a koff (hPD-1-Fc [38]) of 0.000401 s⁻¹ and a kon (hPD-1-Fc [38]) of 240000 M⁻¹ s⁻¹.
